The experiment addresses T1, Adiponectin receptor 1 (ADIPOR1), endogenous in iPSC-derived RPE (human (endogenous in iPSC-derived RPE)) (UniProt Q96A54).
T1 sequence: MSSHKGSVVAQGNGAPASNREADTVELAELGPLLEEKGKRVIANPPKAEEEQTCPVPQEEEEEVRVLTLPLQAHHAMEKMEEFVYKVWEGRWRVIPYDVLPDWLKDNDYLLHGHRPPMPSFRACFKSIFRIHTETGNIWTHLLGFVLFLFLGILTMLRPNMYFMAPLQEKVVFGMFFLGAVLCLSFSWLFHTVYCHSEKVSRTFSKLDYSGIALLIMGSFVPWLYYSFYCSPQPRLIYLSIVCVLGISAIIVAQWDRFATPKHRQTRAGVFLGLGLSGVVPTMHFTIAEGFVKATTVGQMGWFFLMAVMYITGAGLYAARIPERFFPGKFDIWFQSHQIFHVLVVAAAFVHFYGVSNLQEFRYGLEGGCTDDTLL

Take “recombinant CTRP5 globular domain (domain or fragment)”: the pAMPK (pT172) levels by ELISA in healthy-iRPE in serum-deprived medium, 0.2 µg/mL gCTRP5 for 30 min is 20 % decrease.

B1: recombinant CTRP5 full length (ligand)
chain: SPPLDDNKIPSLCPGHPGLPGTPGHHGSQGLPGRDGRDGRDGAPGAPGEKGEGGRPGLPGPRGDPGPRGEAGPAGPTGPAGECSVPPRSAFSAKRSESRVPPPSDAPLPFDRVLVNEQGHYDAVTGKFTCQVPGVYYFAVHATVYRASLQFDLVKNGESIASFFQFFGGWPKPASLSGGAMVRLEPEDQVWVQVGVGDYIGIYASIKTDSTFSGFLVYSDWHSSPVFA
Regarding B1, the pAMPK (pT172) levels by ELISA in healthy-iRPE in serum-free medium, recombinant full-length CTRP5 at 0.2, 2 and 25 µg/mL was found to be 50 % reduction.

The values are drawn from PMC8660775.
